The source of these data is paper PMC12440816.

Test [1] concerns the target Luc-MCM/Cdt1 (luciferase-tagged MCM in complex with Cdt1) [Saccharomyces cerevisiae]. Briefly: MCM recruitment assay (DNA pulldown, luciferase-tagged MCM) in ATPγS. Particulars: ARS1 origin, read off a plot.
Test [2] concerns the target MCM replicative helicase hexamer (Mcm2–7), loaded on DNA (Saccharomyces cerevisiae) (UniProt P29469).
For test [3] the target is unchanged. The source holds these as a separate data set.

As for “origin recognition complex (ORC), wild type mutant Orc6:S106A; Orc6:S116A; Orc6:S123A; Orc6:T146A [Saccharomyces cerevisiae] / Luc-MCM/Cdt1 (luciferase-tagged MCM in complex with Cdt1) [Saccharomyces cerevisiae] chain 6 S106A, chain 6 S116A, chain 6 S123A, chain 6 T146A”, the response in test [1] (+ CDK (Orc2 phosphorylated)) turned out to be 230 fmol; in test [1] (- CDK (ORC not phosphorylated)) it was 250 fmol.

Consider “MCM replicative helicase hexamer (Mcm2–7), loaded on DNA, P29469 1-868; P24279 1-971; P30665 1-933; P29496 1-775; P53091 1-1017; P38132 1-845”, for which, in test [2], the high-salt-resistant luciferase-tagged MCM on the 300 bp[lacO] template, with IPTG against without IPTG, after free MCM–Cdt1 and Cdc6 were washed off was 3.3 fold. Also, the high-salt-resistant luciferase-tagged MCM on the 300 bp[lacO] template at 30 min, with IPTG against without IPTG (SHs loaded by Orc2∆N behind a LacI roadblock) in test [3] amounted to 3.8 fold.
